In patent US20240368263A1 (PROMETHEUS BIOSCIENCES, published 2024):

T1: human TL1A (endogenous, human whole blood assay) (human, UniProt O95150 1-251, limits assumed)
T1 sequence (looked up): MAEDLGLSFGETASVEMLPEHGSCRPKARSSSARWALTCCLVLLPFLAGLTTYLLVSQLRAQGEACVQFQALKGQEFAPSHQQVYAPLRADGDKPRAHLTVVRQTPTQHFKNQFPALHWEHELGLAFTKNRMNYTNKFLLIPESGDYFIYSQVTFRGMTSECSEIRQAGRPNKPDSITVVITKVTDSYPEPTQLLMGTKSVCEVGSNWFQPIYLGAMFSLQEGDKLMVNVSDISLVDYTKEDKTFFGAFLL

T2: Fas/TNFSF6 (R&D Systems, cat. no. 126-FL/CF) (UniProt P48023 134-281)
T2 sequence (looked up): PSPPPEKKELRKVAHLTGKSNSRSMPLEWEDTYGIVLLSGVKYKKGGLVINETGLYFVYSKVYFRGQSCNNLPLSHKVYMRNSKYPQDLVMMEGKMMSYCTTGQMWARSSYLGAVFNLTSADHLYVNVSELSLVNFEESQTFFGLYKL

T3: membrane-associated human TL1A on transfected HEK293 cells (human, UniProt O95150 1-251)
T3 construct: whole, on cells
T3 sequence (looked up): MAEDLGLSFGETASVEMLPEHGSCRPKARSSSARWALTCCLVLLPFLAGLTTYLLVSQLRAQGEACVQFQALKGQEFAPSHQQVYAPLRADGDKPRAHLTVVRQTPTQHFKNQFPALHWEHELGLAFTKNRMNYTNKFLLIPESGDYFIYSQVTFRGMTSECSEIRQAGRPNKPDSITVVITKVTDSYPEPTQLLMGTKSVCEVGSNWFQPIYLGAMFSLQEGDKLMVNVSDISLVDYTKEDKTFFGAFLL

T4: human TL1A (Fitzgerald, Prod. #30R-AT070) (human, UniProt O95150 72-251, limits assumed, biotinylated with EZ-Link Sulfo-NHS-LC-Biotin where used as soluble antigen)
T4 construct: also called TNFSF15; biotinylated human TL1A
T4 sequence (looked up): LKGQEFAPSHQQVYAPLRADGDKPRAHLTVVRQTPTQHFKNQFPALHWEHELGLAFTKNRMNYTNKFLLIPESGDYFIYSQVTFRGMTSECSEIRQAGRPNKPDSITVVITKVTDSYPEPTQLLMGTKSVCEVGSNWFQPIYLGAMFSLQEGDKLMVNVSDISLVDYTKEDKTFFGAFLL


Legend:
[1] = target: T1, human TL1A (endogenous, human whole …); assay: cell-based or functional assay
[2] = target: TRAIL/TNFSF10 (R&D Systems, cat. no. 375-TL/CF) (UniProt P50591 114-281); assay: ELISA, antigen coated at 1 µg/ml, Fab titrated
Protocol: (§1) Next, all the Fab variants were characterized for their selectivity for human TL1A relative to other TNFSF members TRAIL, LIGHT and Fas. […] The plate was washed 3 times with PBS-T and blocked with 100 μl of 1% BSA/PBS. The block was discarded and the Fab variants or control antibodies (Fas/TNFSF6, R&D Systems, cat. no. AF126; TRAIL/TNFSF10, R&D Systems, cat. no. AF375; LIGHT/TNFSF14, R&D Systems, cat. no. AF664) were titrated in 50 μl 1% BSA/PBS and incubated for 1 h at 25° C. The plate was washed 3 times with PBS-T and secondary HRP-conjugated antibody (diluted 5,000-fold in 1% BSA/PBS) was added for 1 h at 25° C. The plate was washed 3 times with PBS-T and developed.

[3] = target: LIGHT/TNFSF14 (R&D Systems, cat. no. 664-LI/CF) (UniProt O43557 74-240); assay: ELISA, antigen coated at 1 µg/ml, Fab titrated
Protocol: as §1

[4] = target: T2, Fas/TNFSF6 (R&D Systems, cat. no. …); assay: ELISA, antigen coated at 1 µg/ml, Fab titrated
Protocol: as §1

[5] = target: T3, membrane-associated human TL1A on …; assay: flow cytometry, HEK293 cells transfected with human TL1A
Protocol: All the Fab variants were tested for binding to membrane-associated human TL1A. For these studies a HEK293 cell line that had been transfected with human TL1A was used. The 293 cells expressing membrane bound human TL1A were maintained in DMEM containing L-glutamine, glucose, sodium pyruvate, and phenol red (ThermoFisher cat #11995-065) plus 10% fetal bovine serum, 1X penicillin-streptomycin (Fisher cat #15140122) and 2 μg/ml puromycin (Gibco cat #A11138-03) in a 37° C. incubator with 5% CO2. Three days prior to the assay, a T-75 flask was seeded with 3×10⁶ cells so that the flask was 90-95% confluent on the day of the assay. The media was aspirated and the cell monolayer was gently washed with 5 ml PBS. Adherent cells were removed by repeatedly pipetting 10 ml ice cold 1% BSA/PBS against the monolayer. The cells were counted and 5×10⁵ were aliquoted for each sample to be analyzed. The cells were collected by centrifuging at 300× g at 4° C. for 5 minutes and the wash was discarded. The cells were resuspended in 100 μl Fab or IgG diluted in 1% BSA/PBS and placed on ice for 30 min. Next, the cells were washed with 1 ml 1% BSA/PBS and collected by centrifuging at 300× g at 4° C. for 5 min. The wash was discarded and 100 μl secondary goat F (ab′) 2 anti-human kappa FITC (Southern Biotech cat #2062-02) or goat F (ab′) 2 anti-human IgG PE (Southern Biotech cat #2043-09) conjugate, diluted 1:200 in BSA/PBS was added. Cells were placed on ice for 30 min. Finally, the cells were washed with 1 ml BSA/PBS, collected by centrifuging at 300× g at 4° C. for 5 min. The wash was removed and the cells were resuspended in 500 μl 1% BSA/PBS. One drop of Sytox AADvanced ReadyFlow Reagent (ThermoFisher cat #R37173) was added per sample and the samples were analyzed on the Attune NXT Flow Cytometer (ThermoFisher).

[6] = target: T4, human TL1A (Fitzgerald, Prod. …); assay: two ELISA formats: Fab on coated TL1A; captured Fab with biotinylated TL1A
Protocol: Fabs with the CDRs shown in Tables 19 to 22 were tested for binding to human TL1A in multiple formats. Next, uniform (saturating) quantities of soluble Fab variants were captured on the surface of an ELISA plate and soluble, biotinylated human TL1A was titrated as shown in FIGS. 10 to 13.

Chain of TRAIL/TNFSF10 (R&D Systems, cat. no. 375-TL/CF) (P50591 114-281 limits assumed): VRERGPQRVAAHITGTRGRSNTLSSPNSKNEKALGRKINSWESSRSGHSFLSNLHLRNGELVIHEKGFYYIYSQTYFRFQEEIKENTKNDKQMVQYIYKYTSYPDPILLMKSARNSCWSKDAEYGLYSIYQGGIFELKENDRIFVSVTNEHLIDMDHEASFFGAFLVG
Chain of LIGHT/TNFSF14 (R&D Systems, cat. no. 664-LI/CF) (O43557 74-240 limits assumed): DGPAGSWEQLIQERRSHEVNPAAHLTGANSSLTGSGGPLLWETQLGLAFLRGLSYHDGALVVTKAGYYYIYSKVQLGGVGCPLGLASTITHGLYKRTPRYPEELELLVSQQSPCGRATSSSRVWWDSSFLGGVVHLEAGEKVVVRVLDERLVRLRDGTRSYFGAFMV

Binder	IC50, inhibition of IFN-γ production, human whole blood assay [1]	binding result [2]	binding result [3]	binding result [4]	binding result [5]	binding result [6]
clone 47, modified IgG1 / kappa (antibody) heavy: not shown light: EIVLTQSPGTLSLSPGERATLSCRASSSVSYMYWYQQKPGQAPRLLIYATSNLASGIPDRFSGSGSGTDFTLTISRLEPEDFAVYYCQQWEGNPRTFGGGTKLEIKRTVAAPSVFIFPPSDEQLKSGTASVVCLLNNFYPREAKVQWKVDNALQSGNSQESVTEQDSKDSTYSLSSTLTLSKADYEKHKVYACEVTHQGLSSPVTKSFNRGEC	1.26 nM	–	–	–	–	–
clone 23, IgG2 / kappa (antibody) heavy: QVQLVQSGAEVKKPGASVKVSCKASGFDIQDTYMHWVRQAPGQGLEWMGRIDPASGHLKYDPKFQNRVTMTRDTSTSTVYMELSSLRSEDTAVYYCARSGGLPDKWGQGTTVTVSSASTKGPSVFPLAPCSRSTSESTAALGCLVKDYFPEPVTVSWNSGALTSGVHTFPAVLQSSGLYSLSSVVTVPSSNFGTQTYTCNVDHKPSNTKVDKTVERKCCVECPPCPAPPVAGPSVFLFPPKPKDTLMISRTPEVTCVVVDVSHEDPEVQFNWYVDGVEVHNAKTKPREEQFNSTFRVVSVLTVVHQDWLNGKEYKCKVSNKGLPAPIEKTISKTKGQPREPQVYTLPPSREEMTKNQVSLTCLVKGFYPSDIAVEWESNGQPENNYKTTPPMLDSDGSFFLYSKLTVDKSRWQQGNVFSCSVMHEALHNHYTQKSLSLSPGK light: EIVLTQSPGTLSLSPGERATLSCRASSSVSYMYWYQQKPGQAPRLLIYATSNLASGIPDRFSGSGSGTDFTLTISRLEPEDFAVYYCQQWEGNPRTFGGGTKLEIKRTVAAPSVFIFPPSDEQLKSGTASVVCLLNNFYPREAKVQWKVDNALQSGNSQESVTEQDSKDSTYSLSSTLTLSKADYEKHKVYACEVTHQGLSSPVTKSFNRGEC	0.33 nM	–	–	–	–	–
clone 47, IgG2 / kappa (antibody) heavy: QVQLVQSGAEVKKPGASVKVSCKASGFDIQDTYMHWVRQAPGQGLEWMGRIEPASGHVKYDPKFQTRVTMTRDTSTSTVYMELSSLRSEDTAVYYCARSGGLPDWWGQGTTVTVSSASTKGPSVFPLAPCSRSTSESTAALGCLVKDYFPEPVTVSWNSGALTSGVHTFPAVLQSSGLYSLSSVVTVPSSNFGTQTYTCNVDHKPSNTKVDKTVERKCCVECPPCPAPPVAGPSVFLFPPKPKDTLMISRTPEVTCVVVDVSHEDPEVQFNWYVDGVEVHNAKTKPREEQFNSTFRVVSVLTVVHQDWLNGKEYKCKVSNKGLPAPIEKTISKTKGQPREPQVYTLPPSREEMTKNQVSLTCLVKGFYPSDIAVEWESNGQPENNYKTTPPMLDSDGSFFLYSKLTVDKSRWQQGNVFSCSVMHEALHNHYTQKSLSLSPGK light: EIVLTQSPGTLSLSPGERATLSCRASSSVSYMYWYQQKPGQAPRLLIYATSNLASGIPDRFSGSGSGTDFTLTISRLEPEDFAVYYCQQWEGNPRTFGGGTKLEIKRTVAAPSVFIFPPSDEQLKSGTASVVCLLNNFYPREAKVQWKVDNALQSGNSQESVTEQDSKDSTYSLSSTLTLSKADYEKHKVYACEVTHQGLSSPVTKSFNRGEC	1.01 nM	–	–	–	–	–
clone 34, IgG2 / kappa (antibody) heavy: QVQLVQSGAEVKKPGASVKVSCKASGFDIQDTYMHWVRQAPGQGLEWMGRIEPASGHIKYDPKFQGRVTMTRDTSTSTVYMELSSLRSEDTAVYYCARSGGLPDWWGQGTTVTVSSASTKGPSVFPLAPCSRSTSESTAALGCLVKDYFPEPVTVSWNSGALTSGVHTFPAVLQSSGLYSLSSVVTVPSSNFGTQTYTCNVDHKPSNTKVDKTVERKCCVECPPCPAPPVAGPSVFLFPPKPKDTLMISRTPEVTCVVVDVSHEDPEVQFNWYVDGVEVHNAKTKPREEQFNSTFRVVSVLTVVHQDWLNGKEYKCKVSNKGLPAPIEKTISKTKGQPREPQVYTLPPSREEMTKNQVSLTCLVKGFYPSDIAVEWESNGQPENNYKTTPPMLDSDGSFFLYSKLTVDKSRWQQGNVFSCSVMHEALHNHYTQKSLSLSPGK light: EIVLTQSPGTLSLSPGERATLSCRASSSVSYMYWYQQKPGQAPRLLIYATSNLASGIPDRFSGSGSGTDFTLTISRLEPEDFAVYYCQQWEGNPRTFGGGTKLEIKRTVAAPSVFIFPPSDEQLKSGTASVVCLLNNFYPREAKVQWKVDNALQSGNSQESVTEQDSKDSTYSLSSTLTLSKADYEKHKVYACEVTHQGLSSPVTKSFNRGEC	0.16 nM	–	–	–	–	–

Continued, values first:

IC50, inhibition of IFN-γ production, human whole blood assay [1]	binding result [2]	binding result [3]	binding result [4]	binding result [5]	binding result [6]	Binder
–	no binding	no binding	no binding	binds	binds	Clone X-V Fab (Fab, V domains shown, Fab) VH: QVQLVQSGAEVKKPGASVKVSCKASGFDIQDTYMHWVRQAPGQGLEWMGRIDPASGHTKYDPKFQVRATITTDTSASTAYLQLSSLRSEDTAVYYCARSGGLPDFWGQGTTVTVSS VL: EIVLTQSPGTLSLSPGERATLSCRASSSVSYMYWYQQKPGQAPRLLIYATSNLASGIPDRFSGSGSGTDFTLTISRLEPEDFAVYYCQQWSGNPRTFGGGTKLEIK
–	no binding	no binding	no binding	binds	binds	Clone XL3-10 Fab (Fab, V domains shown, Fab) VH: QVQLVQSGAEVKKPGASVKVSCKASGFDIQDTYMHWVRQAPGQGLEWMGRIDPASGHTKYDPKFQGRATITTDTSASTAYLQLSSLRSEDTAVYYCARSGGLPDFWGQGTTVTVSS VL: EIVLTQSPGTLSLSPGERATLSCRASSSVSYMYWYQQKPGQAPRLLIYATSNLASGIPDRFSGSGSGTDFTLTISRLEPEDFAVYYCQQWSGNPRSFGGGTKLEIK
–	no binding	no binding	no binding	binds	binds	Clone XL3-15 Fab (Fab, V domains shown, Fab) VH: QVQLVQSGAEVKKPGASVKVSCKASGFDIQDTYMHWVRQAPGQGLEWMGRIDPASGHTKYDPKFQGRATITTDTSASTAYLQLSSLRSEDTAVYYCARSGGLPDFWGQGTTVTVSS VL: EIVLTQSPGTLSLSPGERATLSCRASSSVSYMYWYQQKPGQAPRLLIYATSNLASGIPDRFSGSGSGTDFTLTISRLEPEDFAVYYCQQWSRNPRTFGGGTKLEIK
–	no binding	no binding	no binding	binds	binds	Clone XL3-6 Fab (Fab, V domains shown, Fab) VH: QVQLVQSGAEVKKPGASVKVSCKASGFDIQDTYMHWVRQAPGQGLEWMGRIDPASGHTKYDPKFQGRATITTDTSASTAYLQLSSLRSEDTAVYYCARSGGLPDFWGQGTTVTVSS VL: EIVLTQSPGTLSLSPGERATLSCRASSSVSYMYWYQQKPGQAPRLLIYATSNLASGIPDRFSGSGSGTDFTLTISRLEPEDFAVYYCSQWSGNPRTFGGGTKLEIK
